This experiment deals with human eukaryotic translation initiation factor eIF4E (human, UniProt P06730 1-217). Description: crystal structure.
human eukaryotic translation initiation factor eIF4E, sequence (P06730 whole entry): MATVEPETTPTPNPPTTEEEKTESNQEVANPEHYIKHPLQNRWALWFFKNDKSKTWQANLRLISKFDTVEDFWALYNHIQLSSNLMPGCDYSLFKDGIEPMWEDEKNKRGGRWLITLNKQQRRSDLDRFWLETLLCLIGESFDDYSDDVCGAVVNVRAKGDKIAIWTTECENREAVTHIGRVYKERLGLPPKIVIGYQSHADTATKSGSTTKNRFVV

For the molecule PGGTRIIYDRKFLMECRNSP [4EBP1 peptide (eIF4E binding site of human 4EBP1, residues 47-66)], the binding result is “binds”.

Values taken from article PMC3269305 (Journal of Molecular Biology, 2011).
